# Measured values: patent publication US8357518B2, “Thermostable enzymes for the hydrolysis of mannan-containing polysaccharides” (The Board of Trustees of the University of Illinois, priority 2010, dated 2013)
# B1: Caldanaerobius polysaccharolyticus endo-β-mannanase Man5B, wild type, SEQ ID NO: 31 (Caldanaerobius polysaccharolyticus) (protein)
# chain: MKKYGFNFQWMYVWEEGREPEPPDKKALDFLAETGFNFVRIPVDYRFWTRNFDYFNPDKKVFEYIDLYLRECSARNIHMCLNLHRAPGYCINRNDIERDNLWLDKRAQDGFVYQWELFAKRYKGVSSKFLSFDLVNEPPNIGQYGLTRENHASLIIRTVEAIRKIDPDREIVIDGLGGGNIAMPELAHLGVVHSGRGYQPMALTHYQASWWDGHKGLPEPYYPDLLWQGKVWNKDTLREYYKPWRDLQQKGVNVHIGEFGCFNKTSNDVAIRWFEDVLSLYKEFEWGYSLWNFKGPFGIVEHGRPGAKYEYYRGFKVDRELLDLLVENRV
# Tests used:
# [1] = substrate: O=[N+]([O-])c1ccc(O[C@@H]2O[C@H](CO)[C@@H](O)[C@H](O)[C@@H]2O)cc1; assay: Kinetic properties with pNP-linked sugars (Man5B wild type); assay type: biochemical, Caldanaerobius polysaccharolyticus; conditions: other: wild type Man5B 5 nM, substrate 0.06 to 10 mM, 65° C., citrate buffer pH 5.5
# Method: (§1) The plasmid constructs were then introduced into E. coli BL-21 CodonPlus (DE3) RIL competent cells by heat shock, and grown overnight in lysogeny broth (LB) agar medium supplemented with ampicillin (100 μg/mL) and chloramphenicol (50 μg/mL) at 37° C. After 12 h, single colonies were selected and used to inoculate fresh LB (10 mL) supplemented with the antibiotics above at the same concentrations, followed by culturing with aeration for 8 h at 37° C. The pre-cultures were then inoculated into fresh LB (1 L) supplemented with ampicillin and chloramphenicol and the cultures were incubated at 37° C. with vigorous aeration (225 rpm/min). The cultures were grown to an optical density of 0.3 at 600 nm, and the temperature was shifted to 16° C. and gene expression was induced by the addition of 0.1 mM isopropyl β-D-thiogalactopyranoside (IPTG). After 16 h of growth, the cells were harvested by centrifugation (4000×g, […], 4° C.), the cell pellets were then re-suspended in 30 mL lysis buffer (50 mM Tris-HCl, 300 mM NaCl, pH 7.0), and ruptured by two passages through an EmulsiFlex C-3 cell homogenizer from Avestin (Ottawa, Canada). The cell lysate was then clarified by centrifugation at 20,000×g for 30 min at 4° C. to remove cell debris. The lysate containing recombinant protein was then incubated at 65° C. for 30 min, and centrifuged at 20,000×g for 15 min at 4° C. to remove heat labile E. coli proteins. The recombinant proteins were then purified from the heat treated supernatant using the Talon Metal Affinity Resin according to the supplier's protocol, with the exception that Tris-based binding (50 mM Tris-HCl, 300 mM NaCl, pH 7.5), and elution (50 mM Tris-HCl, 300 mM NaCl, 250 mM Imidazole, pH 7.5) buffers were employed. Aliquots of eluted fractions were analyzed by sodium dodecyl sulfate-polyacrylamide gel electrophoresis (SDS-PAGE) and protein bands were visualized by staining with Coomassie brilliant blue G-250. Elution fractions were pooled and the proteins were then exchanged into protein storage buffer (50 mM Tris-HCl, 150 mM NaCl, pH 7.5) by three successive concentration and dilution cycles with Amicon Ultra-15 centrifugal filter units (Man5A-TM1, Man5A-TM2, 50,000 MWCO; Man5B,10,000 MWCO). The UV absorbances of the protein solutions were recorded at 280 nm using a Nanoprop 1000 from Thermo Scientific (Waltham, Mass.) and the protein concentrations were calculated using the following extinction coefficients: Man5A-TM1, ε280 nm=189 mM^−1 cm^−1; Man5A-TM2, ε280 nm=113 mM^−1 cm^−1; Man5B, ε280 nm=103 mM^−1 cm^−1.
# (§2) Determination of kinetic properties for wild type and mutant Man5B with pNP-linked sugars. Kinetic properties of wild type and mutant Man5B were determined for pNP-β-D-mannopyranoside and pNP-β-D-cellobioside. The substrate concentrations ranged from 0.06 to 10 mM and reactions were performed at 65° C. in citrate buffer (50 mM sodium citrate, pH 5.5). The reactions were equilibrated to 65° C. using a thermostated Cary 300 UV-Vis spectrophotometer, and the reactions were initiated by the addition of wild type (5 nM, final concentration) or mutant (2 μM, final concentration) Man5B. The rate of pNP release was determined by continuously monitoring the absorbance at 400 nm. Initial rate data were then plotted against the substrate concentrations, and the values of the Michaelis-Menten constant (KM) and the maximum velocity (Vmax) were estimated from a nonlinear curve fit using GraphPad Prism v5.01 from GraphPad Software (San Diego, Calif.). The kcat was calculated as the quotient of the Vmax and the concentration of enzyme used in the reaction.
# (§3) Next, to test whether the mutations introduced in Man5B had any effects on the catalytic activity of this enzyme, the catalytic parameters for the wild type and mutant enzymes were determined using pNP-β-D-cellobioside and pNP-β-D-mannopyranoside as substrates.
# [2] = substrate: O=[N+]([O-])c1ccc(O[C@@H]2O[C@H](CO)[C@@H](O[C@@H]3O[C@H](CO)[C@@H](O)[C@H](O)[C@H]3O)[C@H](O)[C@H]2O)cc1; assay: as above; assay type: biochemical, Caldanaerobius polysaccharolyticus; conditions: other: wild type Man5B 5 nM, substrate 0.06 to 10 mM, 65° C., citrate buffer pH 5.5
# Method: as §1, §2, §3
protein,measurement,setting,value
B1,Km,[1],26 ± 4 mM
same,kcat,[1],42 ± 3 s⁻¹
same,kcat/Km,[1],1600 ± 100 M⁻¹ s⁻¹
same,Km,[2],(9.7 ± 1) × 10^−2 mM
same,kcat,[2],2.4 ± 0.1 s⁻¹
same,kcat/Km,[2],25000 ± 2000 M⁻¹ s⁻¹
